Literature values as cited in article PMC3433420.
Like-named read-outs stand apart in the source and are kept apart here.

Tests used:
Details in all cases: cited from earlier work
[1] = target: SRC (Homo sapiens) (UniProt P12931)
[2] = target: ITK (Homo sapiens) (UniProt Q08881)
[3] = target: HSH2D (Homo sapiens) (UniProt Q96JZ2)
[4] = target: DAPP1 (Homo sapiens) (UniProt Q9UN19)
[5] = target: PIK3R1-N (Homo sapiens) (UniProt P27986)
[6] = target: SLA (Homo sapiens) (UniProt Q13239)
[7] = target: PLCG1-NC (Homo sapiens) (UniProt P19174)
[8] = target: SHC1 (Homo sapiens) (UniProt P29353)
[9] = target: RASA1-N (Homo sapiens) (UniProt P20936)
[10] = target: PIK3R3-NC (Homo sapiens) (UniProt Q92569)
[11] = target: RASA1-N (Homo sapiens) (UniProt P20936); remark: listed apart in the source
[12] = target: PIK3R2-N (Homo sapiens) (UniProt O00459)
[13] = target: RASA1-NC (Homo sapiens) (UniProt P20936)
[14] = target: VAV1 (Homo sapiens) (UniProt P15498)
[15] = target: NCK2 (Homo sapiens) (UniProt O43639)
[16] = target: YES1 (Homo sapiens) (UniProt P07947)
[17] = target: SOCS1 (Homo sapiens) (UniProt O15524)
[18] = target: VAV2 (Homo sapiens) (UniProt P52735)
[19] = target: PIK3R3-NC (Homo sapiens) (UniProt Q92569); remark: listed apart in the source
[20] = target: PTPN6-C (Homo sapiens) (UniProt P29350)
[21] = target: SYK-NC (Homo sapiens) (UniProt P43405)
[22] = target: SYK-C (Homo sapiens) (UniProt P43405)
[23] = target: SRC (Homo sapiens) (UniProt P12931); remark: listed apart in the source
[24] = target: SLA2 (Homo sapiens) (UniProt Q9H6Q3)
[25] = target: SH2D1B (Homo sapiens) (UniProt O14796)
[26] = target: SH2D3A (Homo sapiens) (UniProt Q9BRG2)
[27] = target: PIK3R1-NC (Homo sapiens) (UniProt P27986)
[28] = target: SHC4 (Homo sapiens) (UniProt Q6S5L8)
[29] = target: PLCG2-N (Homo sapiens) (UniProt P16885)
[30] = target: SHF (Homo sapiens) (UniProt Q7M4L6)
Sequence of SHF (Homo sapiens) (Q7M4L6 318-423): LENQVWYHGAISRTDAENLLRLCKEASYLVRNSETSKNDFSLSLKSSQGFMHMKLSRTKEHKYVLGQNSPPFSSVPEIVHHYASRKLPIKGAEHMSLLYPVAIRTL

Sequence of RASA1-N (Homo sapiens) (P20936 176-446): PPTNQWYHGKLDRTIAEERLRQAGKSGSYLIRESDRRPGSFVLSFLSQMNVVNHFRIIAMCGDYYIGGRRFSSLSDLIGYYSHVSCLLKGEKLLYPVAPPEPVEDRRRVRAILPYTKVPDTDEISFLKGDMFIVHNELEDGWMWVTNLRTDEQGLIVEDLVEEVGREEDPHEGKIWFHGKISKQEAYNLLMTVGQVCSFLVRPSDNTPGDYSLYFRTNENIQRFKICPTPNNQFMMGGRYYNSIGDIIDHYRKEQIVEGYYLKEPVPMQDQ
Sequence of YES1 (Homo sapiens) (P07947 153-260): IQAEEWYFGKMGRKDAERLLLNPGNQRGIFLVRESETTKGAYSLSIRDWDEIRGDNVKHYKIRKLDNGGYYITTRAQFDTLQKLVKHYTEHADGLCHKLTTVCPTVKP
Sequence of SLA (Homo sapiens) (Q13239 79-180): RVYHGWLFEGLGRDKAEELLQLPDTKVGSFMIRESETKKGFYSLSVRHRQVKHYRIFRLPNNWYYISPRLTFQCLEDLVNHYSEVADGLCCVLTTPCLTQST
Sequence of DAPP1 (Homo sapiens) (Q9UN19 30-134): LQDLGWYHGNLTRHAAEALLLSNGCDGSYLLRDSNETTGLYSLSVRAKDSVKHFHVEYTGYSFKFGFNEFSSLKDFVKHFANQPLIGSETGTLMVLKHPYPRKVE
Sequence of VAV1 (Homo sapiens) (P15498 666-770): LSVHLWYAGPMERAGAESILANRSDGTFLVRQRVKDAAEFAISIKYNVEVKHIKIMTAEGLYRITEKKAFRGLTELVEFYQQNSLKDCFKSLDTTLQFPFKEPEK
Sequence of VAV2 (Homo sapiens) (P52735 668-772): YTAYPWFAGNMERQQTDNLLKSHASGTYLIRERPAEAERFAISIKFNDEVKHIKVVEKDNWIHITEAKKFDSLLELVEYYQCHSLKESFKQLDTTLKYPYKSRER
Sequence of PLCG2-N (Homo sapiens) (P16885 527-740): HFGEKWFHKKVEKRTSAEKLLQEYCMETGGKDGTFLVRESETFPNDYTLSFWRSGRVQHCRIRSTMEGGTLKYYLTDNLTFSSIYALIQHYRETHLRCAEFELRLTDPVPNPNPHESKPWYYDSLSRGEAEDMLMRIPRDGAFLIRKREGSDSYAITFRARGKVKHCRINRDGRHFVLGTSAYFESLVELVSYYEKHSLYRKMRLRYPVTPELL
Sequence of SHC1 (Homo sapiens) (P29353 483-583): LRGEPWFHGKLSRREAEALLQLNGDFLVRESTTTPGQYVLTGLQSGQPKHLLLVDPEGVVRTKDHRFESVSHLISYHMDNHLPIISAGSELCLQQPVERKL
Sequence of HSH2D (Homo sapiens) (Q96JZ2 29-130): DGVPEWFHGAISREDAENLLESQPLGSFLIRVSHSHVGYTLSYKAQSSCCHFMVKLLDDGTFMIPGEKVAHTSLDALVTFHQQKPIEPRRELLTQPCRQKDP
Sequence of PTPN6-C (Homo sapiens) (P29350 1-218): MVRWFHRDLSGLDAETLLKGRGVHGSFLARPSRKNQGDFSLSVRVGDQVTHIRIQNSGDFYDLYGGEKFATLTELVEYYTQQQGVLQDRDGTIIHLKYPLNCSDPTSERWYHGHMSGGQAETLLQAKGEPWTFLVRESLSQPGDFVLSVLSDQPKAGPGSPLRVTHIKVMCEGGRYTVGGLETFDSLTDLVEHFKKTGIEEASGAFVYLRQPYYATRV
Sequence of ITK (Homo sapiens) (Q08881 234-343): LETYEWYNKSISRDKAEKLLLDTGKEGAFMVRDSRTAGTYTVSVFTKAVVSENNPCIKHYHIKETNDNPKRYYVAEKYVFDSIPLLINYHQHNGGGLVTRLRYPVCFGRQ
Sequence of PLCG1-NC (Homo sapiens) (P19174 545-761): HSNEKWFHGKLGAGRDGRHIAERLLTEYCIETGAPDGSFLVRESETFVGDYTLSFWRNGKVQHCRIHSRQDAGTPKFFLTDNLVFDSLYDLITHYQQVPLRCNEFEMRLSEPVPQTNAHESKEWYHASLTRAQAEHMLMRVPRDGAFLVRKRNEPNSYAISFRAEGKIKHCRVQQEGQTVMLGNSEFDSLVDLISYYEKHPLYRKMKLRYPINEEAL
Sequence of SHC4 (Homo sapiens) (Q6S5L8 521-622): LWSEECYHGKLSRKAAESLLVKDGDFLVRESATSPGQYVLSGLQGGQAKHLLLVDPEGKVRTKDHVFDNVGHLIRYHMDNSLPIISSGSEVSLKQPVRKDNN
Sequence of SH2D1B (Homo sapiens) (O14796 1-106): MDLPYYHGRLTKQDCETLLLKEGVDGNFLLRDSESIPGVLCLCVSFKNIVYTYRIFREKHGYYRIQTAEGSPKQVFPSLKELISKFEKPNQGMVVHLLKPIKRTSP
Sequence of SOCS1 (Homo sapiens) (O15524 74-179): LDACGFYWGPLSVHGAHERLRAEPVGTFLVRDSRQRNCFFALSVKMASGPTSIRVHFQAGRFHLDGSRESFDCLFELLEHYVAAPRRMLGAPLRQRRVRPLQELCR
Sequence of SLA2 (Homo sapiens) (Q9H6Q3 89-196): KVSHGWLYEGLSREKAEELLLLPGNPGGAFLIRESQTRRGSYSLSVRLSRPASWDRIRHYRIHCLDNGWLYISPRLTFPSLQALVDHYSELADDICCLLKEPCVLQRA
Sequence of SH2D3A (Homo sapiens) (Q9BRG2 10-119): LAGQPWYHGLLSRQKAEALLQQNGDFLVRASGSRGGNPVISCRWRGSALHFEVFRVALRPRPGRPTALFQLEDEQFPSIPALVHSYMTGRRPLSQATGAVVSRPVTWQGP
Sequence of RASA1-NC (Homo sapiens) (P20936 176-446): as the sequence (P20936 176-446) above
Sequence of PIK3R1-N (Homo sapiens) (P27986 328-723): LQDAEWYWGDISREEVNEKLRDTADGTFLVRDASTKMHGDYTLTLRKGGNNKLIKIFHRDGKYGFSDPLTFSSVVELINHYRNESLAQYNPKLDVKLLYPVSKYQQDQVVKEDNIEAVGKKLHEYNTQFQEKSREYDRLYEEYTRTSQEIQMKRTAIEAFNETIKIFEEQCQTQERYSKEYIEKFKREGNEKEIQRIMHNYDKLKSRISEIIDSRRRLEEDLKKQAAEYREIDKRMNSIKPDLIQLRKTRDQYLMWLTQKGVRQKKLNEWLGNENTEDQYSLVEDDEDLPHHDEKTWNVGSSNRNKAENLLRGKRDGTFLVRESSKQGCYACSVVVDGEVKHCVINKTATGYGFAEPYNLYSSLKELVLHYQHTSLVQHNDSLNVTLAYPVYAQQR
Sequence of PIK3R1-NC (Homo sapiens) (P27986 328-723): as above
Sequence of NCK2 (Homo sapiens) (O43639 280-380): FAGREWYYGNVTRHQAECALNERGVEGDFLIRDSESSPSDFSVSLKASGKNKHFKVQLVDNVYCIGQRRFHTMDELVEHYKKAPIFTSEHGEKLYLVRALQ
Sequence of PIK3R2-N (Homo sapiens) (O00459 325-721): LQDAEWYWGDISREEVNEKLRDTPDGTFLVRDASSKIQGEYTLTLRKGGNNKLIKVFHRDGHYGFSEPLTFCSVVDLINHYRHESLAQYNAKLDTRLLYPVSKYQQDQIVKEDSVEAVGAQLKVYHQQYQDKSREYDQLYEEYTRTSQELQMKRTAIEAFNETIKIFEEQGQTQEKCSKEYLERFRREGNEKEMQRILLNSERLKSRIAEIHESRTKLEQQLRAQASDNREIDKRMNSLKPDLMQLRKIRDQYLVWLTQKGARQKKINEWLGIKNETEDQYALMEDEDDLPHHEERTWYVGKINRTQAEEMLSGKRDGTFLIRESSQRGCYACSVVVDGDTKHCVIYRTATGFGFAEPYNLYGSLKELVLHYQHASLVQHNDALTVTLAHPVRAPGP

## …pYEEMRAFQ
[1]
  apparent Kd (screen): 999 nM
[2]
  apparent Kd (screen): 499 nM
[3]
  apparent Kd (screen): 2000 nM
[4]
  apparent Kd (screen): 999 nM
[5]
  apparent Kd (screen): 210 nM
[6]
  apparent Kd (screen): 2000 nM
[7]
  apparent Kd (screen): 499 nM
[8]
  apparent Kd (screen): 999 nM

## …pYLIPQQGFd
[9]
  apparent Kd (screen): 488 nM
[10]
  apparent Kd (screen): 203 nM
[11]
  apparent Kd (screen): 769 nM
[12]
  apparent Kd (screen): 425 nM
[13]
  apparent Kd (screen): 1420 nM

## …pYLVPQQGF
[14]
  apparent Kd (screen): 2000 nM
[15]
  apparent Kd (screen): 2000 nM
[16]
  apparent Kd (screen): 1170 nM
[17]
  apparent Kd (screen): 2000 nM
[18]
  apparent Kd (screen): 2000 nM
[19]
  apparent Kd (screen): 527 nM
[20]
  apparent Kd (screen): 2000 nM

## …pYWDQDPPE
[21]
  apparent Kd (screen): 456 nM
[22]
  apparent Kd (screen): 1970 nM
[23]
  apparent Kd (screen): 196 nM
[24]
  apparent Kd (screen): 2000 nM
[25]
  apparent Kd (screen): 2000 nM
[26]
  apparent Kd (screen): 1600 nM
[27]
  apparent Kd (screen): 1840 nM
[28]
  apparent Kd (screen): 2000 nM
[29]
  apparent Kd (screen): 2000 nM
[30]
  apparent Kd (screen): 2000 nM
